Read-outs that look alike come from different tables or passages of the source.
T1: cynomolgus monkey IL-33 (cys mut) (cynomolgus monkey)
T1 chain: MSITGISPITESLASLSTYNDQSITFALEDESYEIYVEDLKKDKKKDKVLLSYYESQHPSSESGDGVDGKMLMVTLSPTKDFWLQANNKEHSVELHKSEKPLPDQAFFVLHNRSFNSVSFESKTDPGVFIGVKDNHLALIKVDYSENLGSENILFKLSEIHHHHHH

T2: human IL-33 (mm2) (human, UniProt O95760 112-270)
T2 chain: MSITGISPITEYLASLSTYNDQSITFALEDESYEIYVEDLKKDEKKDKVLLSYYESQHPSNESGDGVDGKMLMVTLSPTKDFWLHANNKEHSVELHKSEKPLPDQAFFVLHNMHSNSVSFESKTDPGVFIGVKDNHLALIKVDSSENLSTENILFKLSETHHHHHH

T3: human IL-33 WT (R&D) (human, UniProt O95760 112-270)
T3 sequence: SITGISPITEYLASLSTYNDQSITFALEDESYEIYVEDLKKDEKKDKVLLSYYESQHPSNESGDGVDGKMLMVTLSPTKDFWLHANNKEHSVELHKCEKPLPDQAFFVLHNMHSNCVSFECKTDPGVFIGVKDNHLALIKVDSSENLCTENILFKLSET

T4: wild-type cynomolgus monkey IL-33 (cynomolgus monkey)
T4 chain: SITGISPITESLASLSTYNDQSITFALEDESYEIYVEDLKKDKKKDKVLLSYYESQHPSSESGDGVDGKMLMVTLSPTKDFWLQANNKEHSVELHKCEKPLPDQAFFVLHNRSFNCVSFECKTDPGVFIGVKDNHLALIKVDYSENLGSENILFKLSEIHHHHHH


Key:
Test in all cases: cell-based or functional assay
[1] = molecular target: T1, cynomolgus monkey IL-33 (cys mut)
human IL-33 (mm2) [2] = molecular target: T2, human IL-33 (mm2)
[3] = molecular target: T1, cynomolgus monkey IL-33 (cys mut)
human IL-33 (mm2) [4] = molecular target: T2, human IL-33 (mm2)
[5] = molecular target: T1, cynomolgus monkey IL-33 (cys mut)
human IL-33 WT (R&D) [6] = molecular target: T3, human IL-33 WT (R&D)
human IL-33 (mm2) [7] = molecular target: T2, human IL-33 (mm2)
[8] = molecular target: T1, cynomolgus monkey IL-33 (cys mut)
human IL-33 WT (R&D) [9] = molecular target: T3, human IL-33 WT (R&D); remark: listed apart in the source
human IL-33 (mm2) [10] = molecular target: T2, human IL-33 (mm2)
[11] = molecular target: T4, wild-type cynomolgus monkey IL-33
[12] = molecular target: T1, cynomolgus monkey IL-33 (cys mut)
human IL-33 WT (R&D) [13] = molecular target: T3, human IL-33 WT (R&D); remark: listed apart in the source
human IL-33 (mm2) [14] = molecular target: T2, human IL-33 (mm2)
[15] = molecular target: T4, wild-type cynomolgus monkey IL-33

Binder	IC50, HEK293 ST2 NFkB [3] [nM]	IC50, HEK293 ST2 NFkB (human IL-33 (mm2) [4]) [nM]	IC50, HEK293 ST2 NFkB cyno IL-33 [5] [nM]	IC50, HEK293 ST2 NFkB WT IL-33 (human IL-33 WT (R&D) [6]) [nM]	IC50, whole blood IFNγ (human IL-33 (mm2) [7]) [nM]	Cynomolgus monkey:human IC50 ratio: cysteine mutant IL-33 [8]	IC50, HEK293 ST2 NFkB [8] [nM]	IC50, HEK293 ST2 NFkB (human IL-33 WT (R&D) [9]) [nM]	IC50, HEK293 ST2 NFkB (human IL-33 (mm2) [10]) [nM]	Cynomolgus monkey:human IC50 ratio: wild-type IL-33 [11]	IC50, HEK293 ST2 NFkB [11] [nM]	also measured
IL33-12 (antibody, human IgG1, kappa, V domains shown) VH: EVQLVESGGGLVQPGGSLRLSCAASGFTFSSYWMYWVRQAPGKGLEWVASINNDGGNTYYLDSVKGRFTISRDNAKNSLYLQMNSLRAEDTAVYYCARGHYYYTSYSLGYWGQGTLVTVSS VL: DIQMTQSPSSLSASVGDRVTITCKASQNINKHLDWYQQKPGKAPKLLIYFTNNLQTGVPSRFSGSGSGTDFTLTISSLQPEDFATYYCFQYNNGWTFGGGTKVEIKR	0.943	0.14	–	–	–	–	–	–	–	–	–	IC50, HEK293 ST2 NFkB [1]: 3.46 nM; IC50, HEK293 ST2 NFkB (human IL-33 (mm2) [2]): 0.144 nM
IL33-103 (antibody, human IgG1, kappa, V domains shown) VH: EVQLVESGGGLVQPGGSLRLSCAASGFTFSSYWMYWVRQAPGKGLEWVAAITPNGGETYYPDSVKGRFTISRDNAKNSLYLQMNSLRAEDTAVYYCARGHYYYTSYSLGYWGQGTLVTVSS VL: DIQMTQSPSSLSASVGDRVTITCKASQNINKHLDWYQQKPGKAPKLLIYFTNNLQTGVPSRFSGSGSGTDFTLTISSLQPEDFATYYCFQYNNGWTFGGGTKVEIKR	–	–	0.07	0.178	0.104	–	–	–	–	–	–	IC50, HEK293 ST2 NFkB mm2 (human IL-33 (mm2) [7]): 0.028 nM
IL33-45 (antibody, human IgG1, kappa, V domains shown) VH: EVQLVESGGGLVQPGGSLRLSCAASGFTFSSYWMYWVRQAPGKGLEWVASITPDGGNTYYPDSVKGRFTISRDNAKNSLYLQMNSLRAEDTAVYYCARGHYYYTSYSLGYWGQGTLVTVSS VL: DIQMTQSPSSLSASVGDRVTITCKASQNINKHLDWYQQKPGKAPKLLIYFTNNLQTGVPSRFSGSGSGTDFTLTISSLQPEDFATYYCFQYNNGWTFGGGTKVEIKR	0.535	0.325	–	–	–	–	–	–	–	–	–	–
IL33-117 (antibody, human IgG1, kappa, V domains shown) VH: EVQLVESGGGLVQPGGSLRLSCAASGFTFSSYWMYWVRQAPGKGLEWVASITPNGGEDYYPDSVKGRFTISRDNAKNSLYLQMNSLRAEDTAVYYCARGHYYYTSYSLGYWGQGTLVTVSS VL: DIQMTQSPSSLSASVGDRVTITCKASQNINKHLDWYQQKPGKAPKLLIYFTNNLQTGVPSRFSGSGSGTDFTLTISSLQPEDFATYYCFQYNNGWTFGGGTKVEIKR	–	–	0.052	0.155	0.106	–	–	–	–	–	–	–
IL33-313 (antibody, human IgG1, lambda, V domains shown) VH: EVQLLESGGGLVQPGGSLRLSCAASGFTFSSYAMSWVRQAPGKGLEWVSGIADDFTSTYYADPVKGRFTISRDNSKNTLYLQMNSLRAEDTAVYYCARDLWMMNYAGGLRYPFGYWGQGTMVTVSS VL: SYVLTQPPSVSVSPGQTASITCSGERMGDKYAAWYQQKPGQSPVLVIYRDTKRPSGIPERFSGSNSGNTATLTISGTQAMDEADYYCGVLKQDTGVFGGGTKLTVLG	–	–	–	–	–	206	1.2	0.027	0.006	528	14.1	–
IL33-310 (antibody, human IgG4 S228P, kappa, V domains shown) VH: EVQLVESGGGLVQPGGSLRLSCAASGFTFSSFSMSWVRQAPGKGLEWVATISGGKTFTDYVDSVKGRFTISRDDSKNTLYLQMNSLRAEDTAVYYCTRANYGNWFFEVWGQGTLVTVSS VL: EIVLTQSPATLSLSPGERATLSCRASESVAKYGLSLLNWFQQKPGQPPRLLIFAASNRGSGIPARFSGSGSGTDFTLTISSLEPEDFAVYYCQQSKEVPFTFGQGTKVEIKR	–	–	–	–	–	29.2	0.213	0.021	0.007	104	2.19	Cynomolgus monkey:human IC50 ratio: cysteine mutant IL-33 [12]: 32.5; IC50, HEK293 ST2 NFkB [12]: 0.59 nM; IC50, HEK293 ST2 NFkB (DTT-pretreated IL-33) (human IL-33 WT (R&D) [13]): 0.061 nM; IC50, HEK293 ST2 NFkB (human IL-33 (mm2) [14]): 0.018 nM; Cynomolgus monkey:human IC50 ratio: wild-type IL-33 [15]: 27.1; IC50, HEK293 ST2 NFkB (DTT-pretreated IL-33) [15]: 1.64 nM

Source: patent US20180037644A1 (Pfizer, published 2018)
